For orientation: Kd means a measure of binding affinity in units of concentration. A lower Kd goes with a tighter complex.

Drawing on PMC10786891, “Massively parallel profiling of RNA-targeting CRISPR-Cas13d”, this text covers Kd for 27 molecules.

T1: EsCas13d, nuclease-dead (Eubacterium siraeum, UniProt B0MS50, R295A;H300A;R849A;H854A)
T1 sequence: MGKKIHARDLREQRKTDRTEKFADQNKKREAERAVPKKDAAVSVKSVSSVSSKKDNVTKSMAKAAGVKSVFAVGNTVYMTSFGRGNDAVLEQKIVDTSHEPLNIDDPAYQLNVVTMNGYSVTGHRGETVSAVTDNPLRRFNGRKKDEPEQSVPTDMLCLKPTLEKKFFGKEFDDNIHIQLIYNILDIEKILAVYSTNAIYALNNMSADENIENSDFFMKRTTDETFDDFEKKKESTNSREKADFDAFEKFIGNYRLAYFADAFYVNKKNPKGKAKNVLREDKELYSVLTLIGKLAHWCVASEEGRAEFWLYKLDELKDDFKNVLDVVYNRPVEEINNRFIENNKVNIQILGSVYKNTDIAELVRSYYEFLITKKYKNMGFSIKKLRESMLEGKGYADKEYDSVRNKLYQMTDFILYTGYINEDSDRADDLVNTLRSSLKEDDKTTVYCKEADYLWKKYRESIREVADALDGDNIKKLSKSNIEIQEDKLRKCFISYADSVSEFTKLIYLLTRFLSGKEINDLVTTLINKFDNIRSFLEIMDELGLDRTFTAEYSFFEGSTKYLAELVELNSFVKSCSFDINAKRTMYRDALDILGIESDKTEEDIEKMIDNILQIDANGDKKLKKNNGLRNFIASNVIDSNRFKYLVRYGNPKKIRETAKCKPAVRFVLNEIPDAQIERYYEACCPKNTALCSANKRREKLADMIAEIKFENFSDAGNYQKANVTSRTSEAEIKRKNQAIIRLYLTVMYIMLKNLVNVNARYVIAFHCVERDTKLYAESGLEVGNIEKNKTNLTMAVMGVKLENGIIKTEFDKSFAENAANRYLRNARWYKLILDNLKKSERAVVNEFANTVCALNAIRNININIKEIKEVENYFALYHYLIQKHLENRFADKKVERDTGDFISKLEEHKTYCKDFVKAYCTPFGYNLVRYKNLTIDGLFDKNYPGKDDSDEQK

B1: target 1 insA 3' of 15,insC 3' of 5 (mixed)
RNA 1: CACCCGUGCAAAAAUGCAGGGGUCUAAAACUGAGCGGAUAACCUCUCUAUGG
RNA 2: GGGAAUGGAUCCACAUCUACGAAUUCGUACCAUAGAGAAGGUUAUCCGCCUCACCGAGAUCGGAAGAGCACACGU
B2: target 1 C2U,G15U (mixed)
RNA 1: CACCCGUGCAAAAAUGCAGGGGUCUAAAACUGAGCGGAUAACCUCUCUAUGG
RNA 2: GGGAAUGGAUCCACAUCUACGAAUUCGUACCAUAGAUAGGUUAUCCGCUUACCGAGAUCGGAAGAGCACACGU
B3: target 3 del6,del22 (mixed)
RNA 1: CACCCGUGCAAAAUUGCAGGGGUCUAAAACGACCUGAAUAUUUCAGAUCAAA
RNA 2: GGGAAUGGAUCCACAUCUACGAAUUCGUUUUGAUCUGAAAUAUUAGGUCUGCAGAUCGGAAGAGCACACGU
B4: target 3 complement block 1-6 (mixed)
RNA 1: CACCCGUGCAAAAUUGCAGGGGUCUAAAACGACCUGAAUAUUUCAGAUCAAA
RNA 2: GGGAAUGGAUCCACAUCUACGAAUUCGUUUUUGAUCUGAAAUAUUGUCCAGUGCAGAUCGGAAGAGCACACGU
B5: target 3 insA 3' of 21,insA 3' of 4 (mixed)
RNA 1: CACCCGUGCAAAAUUGCAGGGGUCUAAAACGACCUGAAUAUUUCAGAUCAAA
RNA 2: GGGAAUGGAUCCACAUCUACGAAUUCGUUUUAUGAUCUGAAAUAUUCAGAGUCUGCAGAUCGGAAGAGCACACGU
B6: target 3 insU 3' of 6 (mixed)
RNA 1: CACCCGUGCAAAAUUGCAGGGGUCUAAAACGACCUGAAUAUUUCAGAUCAAA
RNA 2: GGGAAUGGAUCCACAUCUACGAAUUCGUUUUUGAUCUGAAAUAUUCUAGGUCUGCAGAUCGGAAGAGCACACGU
B7: target 3 A11C,G14A (mixed)
RNA 1: CACCCGUGCAAAAUUGCAGGGGUCUAAAACGACCUGAAUAUUUCAGAUCAAA
RNA 2: GGGAAUGGAUCCACAUCUACGAAUUCGUUUUUGAUCUAAACUAUUCAGGUCUGCAGAUCGGAAGAGCACACGU
B8: target 3 insU 3' of 6,insA 3' of 2 (mixed)
RNA 1: CACCCGUGCAAAAUUGCAGGGGUCUAAAACGACCUGAAUAUUUCAGAUCAAA
RNA 2: GGGAAUGGAUCCACAUCUACGAAUUCGUUUUUGAUCUGAAAUAUUCUAGGUACUGCAGAUCGGAAGAGCACACGU
B9: target 3 insA 3' of 7,insA 3' of 4 (mixed)
RNA 1: CACCCGUGCAAAAUUGCAGGGGUCUAAAACGACCUGAAUAUUUCAGAUCAAA
RNA 2: GGGAAUGGAUCCACAUCUACGAAUUCGUUUUUGAUCUGAAAUAUUACAGAGUCUGCAGAUCGGAAGAGCACACGU
B10: target 3 A18G,U22G (mixed)
RNA 1: CACCCGUGCAAAAUUGCAGGGGUCUAAAACGACCUGAAUAUUUCAGAUCAAA
RNA 2: GGGAAUGGAUCCACAUCUACGAAUUCGUUGUUGGUCUGAAAUAUUCAGGUCUGCAGAUCGGAAGAGCACACGU
B11: target 3 complement block 2-6 (mixed)
RNA 1: CACCCGUGCAAAAUUGCAGGGGUCUAAAACGACCUGAAUAUUUCAGAUCAAA
RNA 2: GGGAAUGGAUCCACAUCUACGAAUUCGUUUUUGAUCUGAAAUAUUGUCCACUGCAGAUCGGAAGAGCACACGU
B12: target 3 insG 3' of 8,insU 3' of 4 (mixed)
RNA 1: CACCCGUGCAAAAUUGCAGGGGUCUAAAACGACCUGAAUAUUUCAGAUCAAA
RNA 2: GGGAAUGGAUCCACAUCUACGAAUUCGUUUUUGAUCUGAAAUAUGUCAGUGUCUGCAGAUCGGAAGAGCACACGU
B13: target 3 insA 3' of 4,insU 3' of 3 (mixed)
RNA 1: CACCCGUGCAAAAUUGCAGGGGUCUAAAACGACCUGAAUAUUUCAGAUCAAA
RNA 2: GGGAAUGGAUCCACAUCUACGAAUUCGUUUUUGAUCUGAAAUAUUCAGAGUUCUGCAGAUCGGAAGAGCACACGU
B14: target 3 insG 3' of 9,insG 3' of 6 (mixed)
RNA 1: CACCCGUGCAAAAUUGCAGGGGUCUAAAACGACCUGAAUAUUUCAGAUCAAA
RNA 2: GGGAAUGGAUCCACAUCUACGAAUUCGUUUUUGAUCUGAAAUAGUUCGAGGUCUGCAGAUCGGAAGAGCACACGU
B15: target 3 U2A,A5U (mixed)
RNA 1: CACCCGUGCAAAAUUGCAGGGGUCUAAAACGACCUGAAUAUUUCAGAUCAAA
RNA 2: GGGAAUGGAUCCACAUCUACGAAUUCGUUUUUGAUCUGAAAUAUUCUGGACUGCAGAUCGGAAGAGCACACGU
B16: target 3 A11G,U22A (mixed)
RNA 1: CACCCGUGCAAAAUUGCAGGGGUCUAAAACGACCUGAAUAUUUCAGAUCAAA
RNA 2: GGGAAUGGAUCCACAUCUACGAAUUCGUUAUUGAUCUGAAGUAUUCAGGUCUGCAGAUCGGAAGAGCACACGU
B17: target 3 insC 3' of 13,insU 3' of 5 (mixed)
RNA 1: CACCCGUGCAAAAUUGCAGGGGUCUAAAACGACCUGAAUAUUUCAGAUCAAA
RNA 2: GGGAAUGGAUCCACAUCUACGAAUUCGUUUUUGAUCUGACAAUAUUCAUGGUCUGCAGAUCGGAAGAGCACACGU
B18: target 3 G19C,U20G (mixed)
RNA 1: CACCCGUGCAAAAUUGCAGGGGUCUAAAACGACCUGAAUAUUUCAGAUCAAA
RNA 2: GGGAAUGGAUCCACAUCUACGAAUUCGUUUUGCAUCUGAAAUAUUCAGGUCUGCAGAUCGGAAGAGCACACGU
B19: target 3 U2C,A5C (mixed)
RNA 1: CACCCGUGCAAAAUUGCAGGGGUCUAAAACGACCUGAAUAUUUCAGAUCAAA
RNA 2: GGGAAUGGAUCCACAUCUACGAAUUCGUUUUUGAUCUGAAAUAUUCCGGCCUGCAGAUCGGAAGAGCACACGU
B20: target 3 insA 3' of 8,insA 3' of 8 (mixed)
RNA 1: CACCCGUGCAAAAUUGCAGGGGUCUAAAACGACCUGAAUAUUUCAGAUCAAA
RNA 2: GGGAAUGGAUCCACAUCUACGAAUUCGUUUUUGAUCUGAAAUAUAAUCAGGUCUGCAGAUCGGAAGAGCACACGU
B21: target 3 insC 3' of 11,insA 3' of 10 (mixed)
RNA 1: CACCCGUGCAAAAUUGCAGGGGUCUAAAACGACCUGAAUAUUUCAGAUCAAA
RNA 2: GGGAAUGGAUCCACAUCUACGAAUUCGUUUUUGAUCUGAAACUAAUUCAGGUCUGCAGAUCGGAAGAGCACACGU
B22: target 3 insG 3' of 16,insU 3' of 1 (mixed)
RNA 1: CACCCGUGCAAAAUUGCAGGGGUCUAAAACGACCUGAAUAUUUCAGAUCAAA
RNA 2: GGGAAUGGAUCCACAUCUACGAAUUCGUUUUUGAUCGUGAAAUAUUCAGGUCUUGCAGAUCGGAAGAGCACACGU
B23: target 3 insG 3' of 8,insA 3' of 2 (mixed)
RNA 1: CACCCGUGCAAAAUUGCAGGGGUCUAAAACGACCUGAAUAUUUCAGAUCAAA
RNA 2: GGGAAUGGAUCCACAUCUACGAAUUCGUUUUUGAUCUGAAAUAUGUCAGGUACUGCAGAUCGGAAGAGCACACGU
B24: target 3 insG 3' of 6,insU 3' of 1 (mixed)
RNA 1: CACCCGUGCAAAAUUGCAGGGGUCUAAAACGACCUGAAUAUUUCAGAUCAAA
RNA 2: GGGAAUGGAUCCACAUCUACGAAUUCGUUUUUGAUCUGAAAUAUUCGAGGUCUUGCAGAUCGGAAGAGCACACGU
B25: target 3 insC 3' of 7,insG 3' of 5 (mixed)
RNA 1: CACCCGUGCAAAAUUGCAGGGGUCUAAAACGACCUGAAUAUUUCAGAUCAAA
RNA 2: GGGAAUGGAUCCACAUCUACGAAUUCGUUUUUGAUCUGAAAUAUUCCAGGGUCUGCAGAUCGGAAGAGCACACGU
B26: target 3 G4A,A11C (mixed)
RNA 1: CACCCGUGCAAAAUUGCAGGGGUCUAAAACGACCUGAAUAUUUCAGAUCAAA
RNA 2: GGGAAUGGAUCCACAUCUACGAAUUCGUUUUUGAUCUGAACUAUUCAAGUCUGCAGAUCGGAAGAGCACACGU
B27: target 3 insG 3' of 6,insU 3' of 5 (mixed)
RNA 1: CACCCGUGCAAAAUUGCAGGGGUCUAAAACGACCUGAAUAUUUCAGAUCAAA
RNA 2: GGGAAUGGAUCCACAUCUACGAAUUCGUUUUUGAUCUGAAAUAUUCGAUGGUCUGCAGAUCGGAAGAGCACACGU

The target of this series is T1, EsCas13d, nuclease-dead. Put plainly: crRNA (strand 1, pre-loaded); Mg2+; 40 mM Tris-HCl pH 7.5, 150 mM NaCl, 6 mM MgCl2, 1 mM DTT, 0.1% Tween-20, 0.2 mg/ml BSA; 25 C; 10 min per concentration, then washed. The following applies: tags: His6-TwinStrep-SUMO cleaved; N-terminal SNAP kept (SNAP-Surface 488); label: 3' end held by stalled T7 RNA polymerase.
B1: the Kd is 16.7 ± 1.4 nM.

With B2, binding was put at a Kd of 29 ± 4 nM.

The molecule B3 displayed a Kd of 19.4 ± 1.9 nM.

Molecule B4 returned a Kd of 28.5 ± 4.5 nM.

The molecule B5 yielded a Kd of approximately 81.5 nM.

On to B6, for which binding was put at a Kd of 17.3 ± 1.35 nM.

B7 gave a Kd of 51 ± 10 nM.

As for B8, the dissociation constant (Kd) came to 47 ± 14 nM.

For the molecule B9, binding was characterised by a dissociation constant (Kd) of 66 ± 12 nM.

B10 gave a Kd of 64 ± 10 nM.

The molecule B11 showed a Kd of 58.5 ± 9 nM.

For B12, the Kd worked out at 21.2 ± 4.45 nM.

Turning to B13, the Kd worked out at 72 ± 18.5 nM.

On to B14, for which binding was put at a Kd of 71 ± 10 nM.

In turn, B15 displayed a Kd of 7.35 ± 1.15 nM.

In turn, B16 yielded a Kd of 67 ± 15 nM.

On to B17, for which the Kd was determined as 100 ± 40 nM.

With B18, the Kd is approximately 49 nM.

Molecule B19 had a Kd of 105 ± 18.5 nM.

B20 registered a Kd of 63 ± 8.5 nM.

In the case of B21, the affinity, expressed as Kd, was 46.5 ± 16.5 nM.

In the case of B22, binding was put at a Kd of 74 ± 24 nM.

Molecule B23 registered a Kd of 67.5 ± 17 nM.

The molecule B24 returned a Kd of 56.5 ± 15 nM.

Turning to B25, the Kd stood at 58.5 ± 9.5 nM.

With B26, binding was characterised by a dissociation constant (Kd) of 48.5 ± 11.5 nM.

B27 showed a Kd of 7.59 ± 0.605 nM.
